{
  "source": "paper PMC4734655",
  "target": "recombinant human IL-8 (interleukin-8) (human)",
  "experiment": "SPR; Biacore; IL-8 immobilised on a CM5 chip by amine coupling (Fc2), BSA on the reference cell (Fc1); soluble recombinant Mtb proteins as analytes at 2.5, 5, 10 and 20 uM; 22 °C, PBS pH 7.4 with 0.005% P20; flow 5 ul/min; one-to-one model",
  "data": [
    {"substance": "recombinant M. tuberculosis rSahH (His-tagged, from pHis-sahH) (from UniProt P9WGV3 1-495) (enzyme)", "values": [
      {"measurement": "Kd", "value": 0.714, "unit": "nM"}
    ]}
  ]
}
